Measurements published in the RNAGym collection of RNA variant scans (doi:10.1073/pnas.2313332121).

B1: TPR t1 (parent)
chain: GACCAAUCUGCCCUCAGAGCUCGAGAACAUCUUCGGAUGCAGAGGAGGCAGGCUUCGGUGGCGCGAUAGCGCCAACGUCCUCAACCUCCAAUGCAUCCCACCACAUGAUGAUGCCUGAAGAGCCUUGGUUUUUUG

Variants of: B1
Experiment: polymerase ribozyme fitness, log enrichment relative to wild type (log ratio); higher = more active; in vitro selection for triplet polymerase activity
Procedure, shortened: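 Mutant libraries for each subunit of a heterodimeric triplet polymerase ribozyme were made by PCR and then transcribed. Each library underwent one round of in vitro selection in triplicate: annealing with a biotinylated primer, the partner subunit and triplets, frozen incubation at −7 °C, gel excision of extended constructs, streptavidin-bead capture and RT-PCR. Input and output libraries were Illumina-sequenced, and only genotypes with ≥10 input reads and ≥1 read per output were kept. Fitness is the logarithm, base 2, of genotype enrichment over wild-type enrichment, computed from inverse-variance-weighted replicate averages.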

Variant | polymerase ribozyme fitness (log ratio)
G52U A68G G77C | -4.82
G52C G93A G113A A119G | -1.29
G51U G122A | -3.78
A50G G110U | -0.639
G51U G52C C80U | -3.13
G52A A84U C101U U106G U132A | -1.69
G51C G52C | -2.79
A50U G57C G60C C85G G113A | -2.27
G51U C79A U87C U106A | -2.68
A50U C62U C70G G117U G120A | -6.48
A50U C72U U106C | -0.84
G52C U59C G120U U125C | -0.0154
A50U U112A | -0.102
G51A G117C | -5.64
G52A C70U G120A U132A | 0.354
A50U C82U A119U | -2.14
G52A C62U G117U | -2.86
A50U G51A C64U C82A A119G | -0.277
G51A A68G C123G | -4.37
G52A G60C C70U U109A | -5.53
G52A U87C C99U | -3.97
G51A U55G A66U U112A | -6.46
A50U G120C | 0.234
G51U G117A | -5.11

Variant | polymerase ribozyme fitness (log ratio)
G51A C124U | -1.14
A50U C64U C72A C79A C101A | -5.1
A50U C72U C73G G122A C124U | -0.982
G51C U78C | -4.89
G51A A84G A108C U112G | -8.09
G52C G71C C102U C104A | -3.27
G51U C101U | -4.07
G51A U96G | -3.85
G51U C53U G61U U130A | -3.08
G52A C53U C114U | -2.38
A50U G61C G113U | -5.56
G52A C72U | -0.913
G51U U54C U59G | -3.68
A50G U54G A95C | -1.88
G51A A74C | -4.63
G51U G71C U78C C114A | -7.09
G52C C56U C82U A84C | 0.272
G51C C53U C56U C89G U112G | -5.96
G51U C94G | -4.19
A50U A108G | -3.01
G52A G122A C124U | 0.227
A50U C86A A118U | -1.06
G51U U78C A111C C123U | -6.69
A50U U55C U92G A118G | -5.06

Variant | polymerase ribozyme fitness (log ratio)
A50U C123G U131G | 0.128
G52C C114U G127U U133A | -6.16
A50U C76G | -1.31
G52A G120A | 0.47
G52A G69U C79G U87A A90U U116A | -3.3
G52A C73U | -0.414
G52C C89G G127C | -2.37
A50U G77A C97U U106C | -2.11
G52A U78A | -0.123
G52A U78C | -0.748
G52A U78G | -0.374
A50U G69A U81A A100C | -4.08
G52C C56G G71U | -3.4
G51A C64U A105G C115G | -8.49
G51A G60U | -1.77
G51A A68C C70G C102U G110A | -5.98
G51U C53U C88G | -2.23
G51U C114U | -5.14
G51A C70G | -6.9
A50U C56U A83C | -1.21
G51U G77C | -1.93
G52A U116C | -0.22
G52A G60C G61A | -4.56
G51A G128A | -5.75

Variant | polymerase ribozyme fitness (log ratio)
G51U U78C | -4.43
G51U G63A G117U | -5.99
G52A C56U | -0.699
G52C G127U | -1.33
G51C C73G | -4.22
G51U G93A | -4.12
G52C C70U U106A | -1.07
G51A G122A G135U | -4.44
G51U G135U | -4.28
G52A C72U C85G | -2.39
A50U C85U G120C U130A | -0.66
G51A C62U C124U | -1.17
G51A G57C U59C U96G U106A A118G | -5.28
A50U G71U G127A | -2.67
A50U C70G | -4.57
G51U U55A C72A U129A U133A | -4.5
G52A G117U | -0.533
G52A G117C | -2.77
G52A A74U | -0.719
A50U G63C | -1.63
G52A G71U U87A U131G | -2.35
A50U U59A G60C C80G C88U C123U | -1.82
G51U C62G C124G | -5.32
G52C U116C | -1.72

Variant | polymerase ribozyme fitness (log ratio)
A50U G57U G135A | -2.6
G51U U106G G110U C124A | -6.4
G51C U78A U106A | -4.81
G51C G60C | -4.64
A50U U131A | -0.622
A50U A119U | -1.31
G52C C72G C104U | -0.739
G52A C72U U125A G128C | -3.74
G52C G71U C73U C104U G120C | -2.42
G52A A68G | -3.34
A50U G113C | -3.07
A50U C104U | -0.896
G52A G57A C82U C85A A121U | -1.13
G52A C86G | -0.287
G52A U87C G117C | -3.1
G51U G52U C56A U78A | -3.39
A50U C53A U55C C73U | -0.723
G52A G63U | -2.08
G51U G58U G63A G117C | -6.73
G51A A95C | -3.42
G51A C82A | -4.73
G52A G93A U130G | -1.22
G52C G120U | -0.715
G52C G120C | -0.0985

Variant | polymerase ribozyme fitness (log ratio)
G52A U87C | 0.43
G52A G60A | -0.303
A50U G110C | -4.17
G52A C86A A111C | -3.28
G51C A111G | -4.71
G51C C79U | -3.54
G51U C56A G63C C98U C99U C124A U131G | -7.53
G51C G61U A74C C114A G117A | -7.43
G52A G57U C72U | -0.842
G52A U130C | -0.159
G51U G120A | -2.64
A50G U106G U116G | -3.36
A50U G60U G117U | -4.36
G52C C70A G117C | -5.92
A50U G71U | -1.94
A50U C70G A84C C115A | -4.54
G51A A66U | -5.73
A50U G51A U87G U106A | -2.51
G52U A68U A83C C101G C115U | -7.12
G52C C72U C86U C89U A105U | -4.77
A50U C56U | -0.861
A50U C56U C64U U78C C85A U109A | -6.76
G52A A118G | -0.546
G51A C72U C82U A83G C94U U126A | -2.93

Variant | polymerase ribozyme fitness (log ratio)
G51A G120U | -2.59
G51U C82U C85U C94U | -2.49
A50U C53U C64G A111U C124U | -8.17
G51U A66U A111C | -6.21
G51U C62U U112G | -5.35
G51C C56U G110A | -5.23
G52A C62A C123A | -1.42
A50U A100C A111G | -2.38
A50U G61U G110A G127A | -3.84
A50U C53U A83G A84C C89G C115U | -5.92
G51U U129C | -4.13
G51U C62A G110C | -8.04
G51U C64U G117A U132A | -5.22
A50U C124A | 0.575
G52C C56U U78G G128C | -2.87
A50U C56G C70U U78C | -5.64
G51A G52A C101U | -3.92
G51U G71A C85A C101U | -7.55
G51C C56A G93A | -6.3
A50G U116A | -3.15
G51C G120C | -2.56
G51U G69U C88A C104U C123U | -0.711
G52A C56A U106A | -1.08
